According to PMC10397247:

Columns and labels:
Assay in all cases: two-hybrid library CCmax;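 note: natural log of median RNA to DNA barcode read ratio; higher means stronger binding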
[1] = biological target: T1, 4H2611-AA
T1 chain: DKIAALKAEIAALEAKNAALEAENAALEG

[2] = biological target: T2, 4H2620-AA; details: mean of both orientations
T2 chain: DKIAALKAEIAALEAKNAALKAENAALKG

[3] = biological target: T3, 4H2648-AA; details: mean of both orientations
T3 chain: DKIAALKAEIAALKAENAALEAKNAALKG

[4] = biological target: T4, 4H2774-AA; details: mean of both orientations
T4 chain: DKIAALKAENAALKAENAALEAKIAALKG

[5] = biological target: T5, 4H2907-AA; details: mean of both orientations
T5 chain: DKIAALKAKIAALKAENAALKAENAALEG

[6] = biological target: T6, 4H3001-AA; details: mean of both orientations
T6 chain: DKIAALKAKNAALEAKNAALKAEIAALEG

[7] = biological target: T7, 4H3056-AA; details: mean of both orientations
T7 chain: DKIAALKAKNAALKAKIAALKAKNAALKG

[8] = biological target: T8, 4H3133-AA; details: mean of both orientations
T8 chain: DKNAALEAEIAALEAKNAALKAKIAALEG

[9] = biological target: T9, 4H3162-AA; details: mean of both orientations
T9 chain: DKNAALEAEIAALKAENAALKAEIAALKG

[10] = biological target: T10, 4H32-AA; details: mean of both orientations
T10 chain: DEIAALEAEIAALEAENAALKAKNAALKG

[11] = biological target: T11, 4H3340-AA; details: mean of both orientations
T11 chain: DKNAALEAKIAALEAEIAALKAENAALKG

[12] = biological target: T12, 4H3378-AA; details: mean of both orientations
T12 chain: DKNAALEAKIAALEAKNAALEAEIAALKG

[13] = biological target: T13, 4H3381-AA; details: mean of both orientations
T13 chain: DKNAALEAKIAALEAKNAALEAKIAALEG

[14] = biological target: T14, 4H340-AA; details: mean of both orientations
T14 chain: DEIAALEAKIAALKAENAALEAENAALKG

[15] = biological target: T15, 4H3413-AA; details: mean of both orientations
T15 chain: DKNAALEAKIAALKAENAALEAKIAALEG

[16] = biological target: T16, 4H347-AA; details: mean of both orientations
T16 chain: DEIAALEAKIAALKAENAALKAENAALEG

[17] = biological target: T17, 4H3493-AA; details: mean of both orientations
T17 chain: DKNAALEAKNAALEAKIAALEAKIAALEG

[18] = biological target: T18, 4H3588-AA; details: mean of both orientations
T18 chain: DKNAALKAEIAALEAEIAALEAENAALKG

[19] = biological target: T19, 4H3606-AA; details: mean of both orientations
T19 chain: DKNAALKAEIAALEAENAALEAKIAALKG

[20] = biological target: T20, 4H3631-AA; details: mean of both orientations
T20 chain: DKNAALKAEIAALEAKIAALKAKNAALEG

[21] = biological target: T21, 4H3697-AA; details: mean of both orientations
T21 chain: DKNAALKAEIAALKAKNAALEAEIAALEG

[22] = biological target: T22, 4H3718-AA; details: mean of both orientations
T22 chain: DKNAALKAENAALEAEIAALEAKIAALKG

[23] = biological target: T23, 4H376-AA; details: mean of both orientations
T23 chain: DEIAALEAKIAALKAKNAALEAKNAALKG

[24] = biological target: T24, 4H384-AA; details: mean of both orientations
T24 chain: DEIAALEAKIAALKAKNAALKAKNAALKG

[25] = biological target: T25, 4H3865-AA
T25 chain: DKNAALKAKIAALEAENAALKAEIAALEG

[26] = biological target: T26, 4H406-AA; details: mean of both orientations
T26 chain: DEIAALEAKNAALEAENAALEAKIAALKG

[27] = biological target: T27, 4H688-AA; details: mean of both orientations
T27 chain: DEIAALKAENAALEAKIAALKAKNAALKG

[28] = biological target: T28, 4H697-AA
T28 chain: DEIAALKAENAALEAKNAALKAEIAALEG

[29] = biological target: T29, 4H963-AA; details: mean of both orientations
T29 chain: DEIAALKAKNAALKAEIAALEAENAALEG

[30] = biological target: T30, 4H982-AA; details: mean of both orientations
T30 chain: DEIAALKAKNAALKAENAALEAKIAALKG

interaction score [1]: -1.29 | interaction score [2]: 0.167 | interaction score [3]: 1.2 | interaction score [4]: -1.54 | interaction score [5]: -1.28 | interaction score [6]: -1.69 | interaction score [7]: -1.57 | interaction score [8]: -1.77 | interaction score [9]: -1.57 | interaction score [10]: 1.56 | interaction score [11]: -1.49 | interaction score [12]: -2.55 | interaction score [13]: -1.73 | interaction score [14]: 1.81 | interaction score [15]: -1.32 | interaction score [16]: -0.637 | interaction score [17]: -1.87 | interaction score [18]: -1.55 | interaction score [19]: -1.56 | interaction score [20]: -0.311 | interaction score [21]: -2.02 | interaction score [22]: -0.987 | interaction score [23]: 1.87 | interaction score [24]: 2.04 | interaction score [25]: -1.39 | interaction score [26]: -1.29 | interaction score [27]: -1.66 | interaction score [28]: -2.17 | interaction score [29]: -1.66 | interaction score [30]: -1.45
Binder: DKIAALKAEIAALEAKNAALEAENAALEG [4H2611-AA]
